Data from article PMC2174279.

B1: Vrp1p-Myc (natural protein)
chain: MAGAPAPPPPPPPPALGGSAPKPAKSVMQGRDALLGDIRKGMKLKKAETNDRSAPIVGGGVVSSASGSSGTVSSKGPSMSAPPIPGMGAPQLGDILAGGIPKLKHINNNASTKPSPSASAPPIPGAVPSVAAPPIPNAPLSPAPAVPSIPSSSAPPIPDIPSSAAPPIPIVPSSPAPPLPLSGASAPKVPQNRPHMPSVRPAHRSHQRKSSNISLPSVSAPPLPSASLPTHVSNPPQAPPPPPTPTIGLDSKNIKPTDNAVSPPSSEVPAGGLPFLAEINARRSERGAVEGVSSTKIQTENHKSPSQPPLPSSAPPIPTSHAPPLPPTAPPPPSLPNVTSAPKKATSAPAPPPPPLPAAMSSASTNSVKATPVPPTLAPPLPNTTSVPPNKASSMPAPPPPPPPPPGAFSTSSALSASSIPLAPLPPPPPPSVATSVPSAPPPPPTLTTNKPSASSKQSKISSSSSSSAVTPGGPLPFLAEIQKKRDDRFVVGGDTGYTTQDKQEDVIGSSKDDNVRPSPISPSINPPKQSSQNGMSFLDEIESKLHKQTSSNAFNAPPPHTDAMAPPLPPSAPPPPITSLPTPTASGDDHTNDKSETVLGMKKAKAPALPGHVPPPPVPPVLSDDSKNNVPAASLLHDVLPSSNLEKPPSPPVAAAPPLPTFSAPSLPQQSVSTSIPSPPPVAPTLSVRTETESISKNPTKSPPPPPSPSTMDTGTSNSPSKNLKQRLFSTGGSTLQHKHNTHTNQPDVDVGRYTIGGSNSIVGAKSGNERIVIDDSRFKWTNVSQMPKPRPFQNKTKLYPSGKGSSVPLDLTLFT
B2: Myo5p-SH3-AD (1020-1219) (domain or fragment)
chain: NKAATRRSVPNPASTLTASQSNARPSPPTAATRATPAATPAAAAMGSGRQANIPPPPPPPPPSSKPKEPMFEAAYDFPGSGSPSELPLKKGDVIYITREEPSGWSLGKLLDGSKEGWVPTAYMKPHSGNNNIPTPPQNRDVPKPVLNSVQHDNTSANVIPAAAQASLGDGLANALAARANKMRLESDDEEANEDEEEDDW
B3: Vrp1p (195-817) (domain or fragment)
chain: HMPSVRPAHRSHQRKSSNISLPSVSAPPLPSASLPTHVSNPPQAPPPPPTPTIGLDSKNIKPTDNAVSPPSSEVPAGGLPFLAEINARRSERGAVEGVSSTKIQTENHKSPSQPPLPSSAPPIPTSHAPPLPPTAPPPPSLPNVTSAPKKATSAPAPPPPPLPAAMSSASTNSVKATPVPPTLAPPLPNTTSVPPNKASSMPAPPPPPPPPPGAFSTSSALSASSIPLAPLPPPPPPSVATSVPSAPPPPPTLTTNKPSASSKQSKISSSSSSSAVTPGGPLPFLAEIQKKRDDRFVVGGDTGYTTQDKQEDVIGSSKDDNVRPSPISPSINPPKQSSQNGMSFLDEIESKLHKQTSSNAFNAPPPHTDAMAPPLPPSAPPPPITSLPTPTASGDDHTNDKSETVLGMKKAKAPALPGHVPPPPVPPVLSDDSKNNVPAASLLHDVLPSSNLEKPPSPPVAAAPPLPTFSAPSLPQQSVSTSIPSPPPVAPTLSVRTETESISKNPTKSPPPPPSPSTMDTGTSNSPSKNLKQRLFSTGGSTLQHKHNTHTNQPDVDVGRYTIGGSNSIVGAKSGNERIVIDDSRFKWTNVSQMPKPRPFQNKTKLYPSGKGSSVPLDLTLFT

Key:
Bee1p-HA (S. cerevisiae) = test: co-IP
[1] = molecular target: Bee1p (1-633) (S. cerevisiae); test: two-hybrid
[2] = molecular target: Bee1p (1-165) (S. cerevisiae); test: two-hybrid

Binder	percent coimmunoprecipitated (Bee1p-HA (S. cerevisiae))	LacZ expression (two-hybrid) [1]	LacZ expression (two-hybrid) [2]
B1	5%		
B2		398 Miller units	
B3		144 Miller units	144 Miller units
